Common to all, as to assay: PanK enzyme assay (Michaelis-Menten kinetics)
Common to all, as to type: biochemical, E. coli
Common to all, as to settings: other: transformation by PanK, 25° C., Tris-HCl pH 7.6, triplicate

Substrate in series [1]: CC(C)(CO)[C@@H](O)C(=O)NCCC(=O)NCCSCCCCCC(=O)NC[C@H]1O[C@H](O[C@H]2[C@H](O)[C@@H](O)[C@H](N)C[C@@H]2N)[C@H](N)[C@@H](O)[C@@H]1O
As for the experimental part:
(§1) PanK enzyme assay. The E. coli pantothenate kinase (PanK or coaA enzyme) was expressed and purified as previously described. Enzyme activity was measured as described in the literature [Strauss E, Begley T P J Biol Chem, 2002, 277:48205-48209]. This assay couples the production of ADP to the consumption of NADH through the activity of pyruvate kinase and lactic dehydrogenase. The decrease of NADH concentration was monitored at 340 nm. Reactions were performed at 25° C. in an Agilent 8453 UV-Vis spectrophotometer coupled to an Agilent 89090A Peltier temperature controller. Kinetic parameters were determined by fitting the rate data into the Michaelis-Menten equation using Prism 4.0 (GraphPad). Each reaction mixture (500 μL) contained ATP (1.5 mM), NADH (0.3 mM), phosphoenolpyruvate (0.5 mM), MgCl2 (10 mM), KCl (20 mM), pyruvate kinase (5 units), lactic dehydrogenase (5 units), and PanK (5 μg, 278 nM) in Tris-HCl buffer (50 mM, pH 7.6). The reaction was initiated by addition of the desired substrate (10-160 μM). All data points are from triplicate experiments.

Substrate in series [2]: [H][C@]1(O[C@H]2[C@H](O)[C@@H](O)[C@H](N)C[C@@H]2N)O[C@H](CNC(=O)CCCCSCCNC(=O)CCNC(=O)[C@H](O)C(C)(C)CO)[C@@H](O)[C@H](O)[C@H]1N
As for the experimental part:
as §1

Substrate in series [3]: [H][C@]1(O[C@H]2[C@H](O)[C@@H](O)[C@H](N)C[C@@H]2N)O[C@H](CNC(=O)CCCSCCNC(=O)CCNC(=O)[C@H](O)C(C)(C)CO)[C@@H](O)[C@H](O)[C@H]1N
As for the experimental part: as §1

Substrate in series [4]: [H][C@]1(O[C@H]2[C@H](O)[C@@H](O)[C@H](N)C[C@@H]2N)O[C@H](CNC(=O)CCSCCNC(=O)CCNC(=O)[C@H](O)C(C)(C)CO)[C@@H](O)[C@H](O)[C@H]1N
On the procedure: as §1

The Km is the substrate concentration at which the rate is half of its maximum. In general, kcat refers to the number of substrate molecules converted per active site and unit of time at saturation. A word on the kcat/Km: it is the second-order rate constant that governs catalysis at low substrate concentration.

B1: E. coli pantothenate kinase (PanK or coaA enzyme) (Escherichia coli K-12) (protein)
chain: MSIKEQTLMTPYLQFDRNQWAALRDSVPMTLSEDEIARLKGINEDLSLEEVAEIYLPLSRLLNFYISSNLRRQAVLEQFLGTNGQRIPYIISIAGSVAVGKSTTARVLQALLSRWPEHRRVELITTDGFLHPNQVLKERGLMKKKGFPESYDMHRLVKFVSDLKSGVPNVTAPVYSHLIYDVIPDGDKTVVQPDILILEGLNVLQSGMDYPHDPHHVFVSDFVDFSIYVDAPEDLLQTWYINRFLKFREGAFTDPDSYFHNYAKLTKEEAIKTAMTLWKEINWLNLKQNILPTRERASLILTKSANHAVEEVRLRK
notes: made in house
With B1, the Km was found to be 170 ± 50 µM in series [1], 230 ± 69 µM in series [2], 350 ± 80 µM in series [3] and 480 ± 160 µM in series [4]. The turnover number (kcat) in series [2] amounted to 0.52 ± 0.08 s⁻¹; in series [3], 0.5 ± 0.05 s⁻¹; in series [4], 0.47 ± 0.05 s⁻¹. Besides, the results for the specificity constant (kcat/Km) in series [2], in series [3] and in series [4] were 2300 ± 800 M⁻¹ s⁻¹, 1400 ± 400 M⁻¹ s⁻¹ and 1000 ± 300 M⁻¹ s⁻¹, respectively.

The record behind these values is patent publication US9127035B2, “Compounds for use in the treatment of bacterial infection” (THE ROYAL INSTITUTION FOR THE ADVANCEMENT OF …, priority 2011, dated 2015).
